Paper PMC9802395 (2022)
Read-outs that look alike come from different tables or passages of the source.

B7: biotinylated EIIIB (protein fragment of fibronectin splice variant EIIIB) (domain or fragment)
chain: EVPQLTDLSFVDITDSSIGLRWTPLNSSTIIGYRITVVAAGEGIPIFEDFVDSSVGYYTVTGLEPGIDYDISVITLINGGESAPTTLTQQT
modifications: biotin (ChromaLink NHS-biotin reagent)

Legend:
Assay in all cases: BLI
[1] = target: B7
[2] = target: B7; remark: listed apart in the source
[3] = target: B7; remark: listed apart in the source
[4] = target: B7; remark: listed apart in the source
NJB2 = target: NJB2
LMJ2.4C = target: LMJ2.4C
LMJ2.5G = target: LMJ2.5G
LMJ1.3J = target: LMJ1.3J
LMJ2.5C = target: LMJ2.5C
LMJ2.5H = target: LMJ2.5H
LMJ1.2G = target: LMJ1.2G
LMJ2.5J = target: LMJ2.5J
LMJ2.6A = target: LMJ2.6A
Chain of LMJ2.6A (P02751 1266-1356): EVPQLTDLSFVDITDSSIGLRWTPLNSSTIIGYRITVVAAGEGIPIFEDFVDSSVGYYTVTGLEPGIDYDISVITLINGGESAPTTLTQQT

Chain of LMJ1.3J (P02751 1266-1356): as above
Chain of LMJ2.4C (P02751 1266-1356): as above
Chain of LMJ2.5C (P02751 1266-1356): as above
Chain of LMJ2.5H (P02751 1266-1356): as above
Chain of LMJ2.5G (P02751 1266-1356): as above
Chain of LMJ1.2G (P02751 1266-1356): as above
Chain of LMJ2.5J (P02751 1266-1356): as above
Chain of NJB2 (P02751 1266-1356): as above

B1: NJB2-IL2 (NJB2 nanobody fused to murine IL-2) (VHH)
VHH: QVQLVETGGGLVQAGGSLRLSCAASGSTFSHNAGGWYRQAPEKQRELVAGISSDGNINYADSVKDRFTISRDNASNTMYLQMNNLKPEDTAVYVCNIRGSYGNTYYSRWGQGTQVTVSS
- koff [1]: 0.000289 s⁻¹
- Kd [2]: 996 pM
- Kd [3]: 1100 pM

B2: LMJ1.2C-IL2 (LMJ1.2C nanobody fused to murine IL-2) (VHH)
VHH: QVQLVETGGGLVQAGGSLRLSCAASGSTFSHSAGGWYRQAPEKQRELVAGIRSDGNINYADSVKDRFTISRDNASNTMYLQMNNLKPEDTAVYVCNIRGSYGNTYYSRWGQGTQVTVSS
- koff [1]: 5.06e-06 s⁻¹
- Kd [2]: 14.4 pM

B3: NJB2-IL2-mt (NJB2 fused to murine IL-2 bearing point mutations that abrogate cytokine activity) (VHH)
VHH: QVQLVETGGGLVQAGGSLRLSCAASGSTFSHNAGGWYRQAPEKQRELVAGISSDGNINYADSVKDRFTISRDNASNTMYLQMNNLKPEDTAVYVCNIRGSYGNTYYSRWGQGTQVTVSS
- Kd [3]: 1600 pM

B4: LMJ2.5I nanobody, biotin-tagged (VHH)
VHH: RVQLVETGGGLVQAGGSLRLSCAVSGSTFSHSAGGWYRQAPEKQRELVAGIRSDGNINYADSVKDRFTISRDNASNTMYLQMNNLKPEDTAVYVCNIRGSYGNTYYSRWGQGAQVTVSS
modifications: biotin at the C-terminus via sortase-mediated tagging (nucleophile GGGK-Biotin)
- koff [4]: 2.49e-05 s⁻¹

B5: LMJ1.2C nanobody, biotin-tagged (VHH)
VHH: QVQLVETGGGLVQAGGSLRLSCAASGSTFSHSAGGWYRQAPEKQRELVAGIRSDGNINYADSVKDRFTISRDNASNTMYLQMNNLKPEDTAVYVCNIRGSYGNTYYSRWGQGTQVTVSS
modifications: biotin at the C-terminus via sortase-mediated tagging (nucleophile GGGK-Biotin)
- koff [4]: 0.00015 s⁻¹

B6: LMJ2.5I-IL2 (LMJ2.5I nanobody fused to murine IL-2) (VHH)
VHH: RVQLVETGGGLVQAGGSLRLSCAVSGSTFSHSAGGWYRQAPEKQRELVAGIRSDGNINYADSVKDRFTISRDNASNTMYLQMNNLKPEDTAVYVCNIRGSYGNTYYSRWGQGAQVTVSS
- koff [1]: < 1e-07 s⁻¹
- Kd [2]: < 1 pM

Binder: B7
- Kd (NJB2): 1820 pM
- koff (NJB2): 0.00104 s⁻¹
- Kd (LMJ2.4C): 62.6 pM
- koff (LMJ2.4C): 4.8e-05 s⁻¹
- Kd (LMJ2.5G): 166 pM
- koff (LMJ2.5G): 9.13e-05 s⁻¹
- Kd (LMJ1.3J): 402 pM
- koff (LMJ1.3J): 0.000305 s⁻¹
- Kd (LMJ2.5C): 78.5 pM
- koff (LMJ2.5C): 3.52e-05 s⁻¹
- Kd (LMJ2.5H): 227 pM
- koff (LMJ2.5H): 0.000136 s⁻¹
- Kd (LMJ1.2G): 973 pM
- koff (LMJ1.2G): 0.000475 s⁻¹
- Kd (LMJ2.5J): 62.2 pM
- koff (LMJ2.5J): 4.45e-05 s⁻¹
- Kd (LMJ2.6A): 344 pM
- koff (LMJ2.6A): 7.47e-05 s⁻¹
